The source of these data is patent US20210401786A1, “COMPOSITION FOR TREATING BURN WOUNDS” (priority 2020, published 2021).

For this experiment, the system named is human non-healing burn wounds. As to the kind of experiment: Wound healing in patients with non-healing burn wounds. The experiment is classed as in vivo. The note with it: for Wound healing time (X +/− S): patients, completely healed cases. As to the method:
In this application, medical records of 430 patients, including 368 male and 60 female, aged from 1 to 70 years old, with a clinical diagnosis of at least one non-healing burn wound were collected. The burn injury includes 150 cases of hydrothermal burns, 167 cases of flame burns, 84 cases of electric burns, and 29 cases of chemical burns. […] The non-healing wounds of 430 patients were treated with the composition of Example 3 of the present invention (49 cases), surgery (197 cases), and conventional treatment (rhEGF therapy) (184 cases). There were no statistically significant differences observed among the groups in terms of gender, age, and wound area (p>0.05) (The comparison results of the differences in terms of various factors are shown in Tables 5, 6 and 7).
Among the 49 patients in the present invention, the wound was completely healed in 31 cases (63.27%), effectively healed in 15 cases (30.61%), improved in 2 cases (4.08%), and not healed in 1 case (2.04%). Among the 197 patients in the surgery group, the wound was completely healed in 152 cases (77.15%), effectively healed in 39 cases (19.80%), improved in 6 cases (3.05%), and not healed in 0 case (0%). Among the 184 patients in the conventional treatment group, the wound was completely healed in 96 cases (52.17%), effectively healed in 56 cases (30.43%), improved in 24 cases (13.05%), and not healed in 8 cases (4.35%). The effect of the present invention on wound healing is analyzed by the total effective rate after receiving different treatments. The total effective rate=(the number of completely healed cases+the number of effectively healed cases)/total number of cases.
The wound healing time of the present invention group, surgery group and conventional dressing group is 19.87±9.10 days, 22.71±11.77 days and 36.71±10.60 days, respectively. […] There is no significant difference in wound healing time between the present invention group and the surgery group (P>0.05).

The mark [1] stands for this setting: patients with non-healing burn wounds.
[2] abbreviates: patients with non-healing burn wounds, listed as conventional treatment.

B1: Conventional treatment: conventional treatment (rhEGF therapy) of patients' non-healing burn wounds (protein, UniProt P01133 23-1207, looked up)
Pro-epidermal growth factor: PQHWSCPEGTLAGNGNSTCVGPAPFLIFSHGNSIFRIDTEGTNYEQLVVDAGVSVIMDFHYNEKRIYWVDLERQLLQRVFLNGSRQERVCNIEKNVSGMAINWINEEVIWSNQQEGIITVTDMKGNNSHILLSALKYPANVAVDPVERFIFWSSEVAGSLYRADLDGVGVKALLETSEKITAVSLDVLDKRLFWIQYNREGSNSLICSCDYDGGSVHISKHPTQHNLFAMSLFGDRIFYSTWKMKTIWIANKHTGKDMVRINLHSSFVPLGELKVVHPLAQPKAEDDTWEPEQKLCKLRKGNCSSTVCGQDLQSHLCMCAEGYALSRDRKYCEDVNECAFWNHGCTLGCKNTPGSYYCTCPVGFVLLPDGKRCHQLVSCPRNVSECSHDCVLTSEGPLCFCPEGSVLERDGKTCSGCSSPDNGGCSQLCVPLSPVSWECDCFPGYDLQLDEKSCAASGPQPFLLFANSQDIRHMHFDGTDYGTLLSQQMGMVYALDHDPVENKIYFAHTALKWIERANMDGSQRERLIEEGVDVPEGLAVDWIGRRFYWTDRGKSLIGRSDLNGKRSKIITKENISQPRGIAVHPMAKRLFWTDTGINPRIESSSLQGLGRLVIASSDLIWPSGITIDFLTDKLYWCDAKQSVIEMANLDGSKRRRLTQNDVGHPFAVAVFEDYVWFSDWAMPSVMRVNKRTGKDRVRLQGSMLKPSSLVVVHPLAKPGADPCLYQNGGCEHICKKRLGTAWCSCREGFMKASDGKTCLALDGHQLLAGGEVDLKNQVTPLDILSKTRVSEDNITESQHMLVAEIMVSDQDDCAPVGCSMYARCISEGEDATCQCLKGFAGDGKLCSDIDECEMGVPVCPPASSKCINTEGGYVCRCSEGYQGDGIHCLDIDECQLGEHSCGENASCTNTEGGYTCMCAGRLSEPGLICPDSTPPPHLREDDHHYSVRNSDSECPLSHDGYCLHDGVCMYIEALDKYACNCVVGYIGERCQYRDLKWWELRHAGHGQQQKVIVVAVCVVVLVMLLLLSLWGAHYYRTQKLLSKNPKNPYEESSRDVRSRRPADTEDGMSSCPQPWFVVIKEHQDLKNGGQPVAGEDGQAADGSMQPTSWRQEPQLCGMGTEQGCWIPVSSDKGSCPQVMERSFHMPSYGTQTLEGGVEKPHSLLSANPLWQQRALDPPHQMELTQ
modifications: Pro-epidermal growth factor
notes: conventional treatment (rhEGF therapy) of patients' non-healing burn wounds
In the case of B1, the “Wound healing time (X +/− S)” value was 36.71 ± 10.60^ days. Also, where the note is “(completely healed + effectively healed cases)/total number of cases”, the “Total effective rate (%)” value turned out to be 82.61% ^. For the same molecule, under setting [1], the “Completely healed case (%)” value is listed as “(52.17%)”; the “Completely healed case, number” value stood at 96 cases; the “Effectively healed case (%)” value is listed as “(30.43%)”; the “Effectively healed case, number” value came to 56 cases. For the same molecule, under setting [1], the “Improved case (%)” value was “(13.05%)”; the “Improved case, number” value was 24 cases; the “Not healed case (%)” value is “(4.35%)”; the “Not healed case, number” value is on record as 8 cases. In addition, under setting [2], the “Completely healed case (%)” value is 52.17%, the “Effectively healed case (%)” value was 30.43%, the “Improved case (%)” value is listed as 13.05% and the “Not healed case (%)” value is 4.35%. Also, for the setting “listed as conventional dressing”, the “Wound healing time (X +/− S)” value is 36.71 ± 10.60 days.
